From the DeepSol protein solubility set

Assay: soluble on expression in E. coli; label from the status in PepcDB or PDB records

Sequence	soluble on expression in E. coli
MTIALELQQLKKTYPGGVQALRGIDLQVEAGDFYALLGPNGAGKSTTIGIISSLVNKTSGRVSVFGYDLEKDVVNAKRQLGLVPQEFNFNPFETVQQIVVNQAGYYGVERKEAYIRSEKYLKQLDLWGKRNERARMLSGGMKRRLMIARALMHEPKLLILDEPTAGVDIELRRSMWGFLKDLNDKGTTIILTTHYLEEAEMLCRNIGIIQHGELVENTSMKALLAKLKSETFILDLAPKSPLPKLDGYQYRLVDTATLEVEVLREQGINSVFTQLSEQGIQVLSMRNKANRLEELFVSLVNEKQGDRA	not soluble
MGSDKIHHHHHHMNKKSSLNNLLYIQEHRSCRNYLEKVENGFKYIEFSHEEVILEKEISWNYLLFVLEGECIINCNQFRERLFQANCMVLLPKTAMVEIKVIAGTRLLSLSFDVPLNVCDKFILQSLTGLCRKLDYNFQSLAIRYPLPPYLEIVTYCLTNKMDCGHFHTLLQQELFFLLRGFYLKEELALLFHPIISAELTFKDFVIGNYFKVSNVNDLISLSNMCKSSFYCKFKEVFGMTAKQWLLKQRNTHILNKVMTSETTVGELMEEFRFESQAHFTHYCKQHFNCTPRELIMKYQVVNQ	not soluble
MGSDKIHHHHHHMNSVVNFRDIGGFPTQQGTVVKTGYFFRSGELVNVAQADQQKLVEDYQIKRIYDFRSAAETQERPDDSIQGTNYLHIDILADIQAQTASLEGMLKTVGSPDEAMDMAYKEMVLSNSGRKGYQTFFENFLSYPQEAILFHCFAGKDRTGIGAALILSALGVEHSYILEDYLKTNEQRKTANEQIIAQYQANGTPLAEIQQLETLLYVKKEYLATALQAIEKEFGSVEGYLKEGLGLPLSAKKDMLSLYTKS	not soluble
MTVEQNVLQQSAAQKHQQTFLNQLREITGINDAQILQQALKDSNGNLELAVAFLTAKNAKTPPQEET	soluble
MMKDKHGAMNAERRGMGEQRLAERMAELERRLKEVEAENIVLKELAYQSAKRYEQLKQLAKENDELRRQLLQSPWSEKTDKMDEDERPDSWFFRTLRQENAIMPHPERNEK	not soluble
MALEFTTLPQLYAHDYDTVIDVRSPAEFAEDHLPGAINLPVLDNEERARVGTIYKQQSPFLARKLGAALVFRNAASHVEQSLSHHEGHWRPLVYCWRGGQRSGSFTWMLQQIGWRAEVVSGGYRTYRRLVNRYLYEDPLPHRLVALDGFTGTAKTEILARLPALGVQMLDLEALANHRGSLLGARPGGQPEQKAFESALAAALCRLDPTRPVVVEAESSRIGERILPPSLWAALCAAPRIEIEAPVAARSAYLTAAYDDILSDAETLTARLDPLRYHRGHAVVEGWLALVAAGDKHGVTRALMEQHYDPAYRKSRASHAVQVAARLRSDTLDHAGIDTLTAQVAAVLKAL	not soluble
MGSDKIHHHHHHMLQYRSSKMISMEIVEFKWLKFLDRYRSMAKHNLSNSGMPEPDLRSMGIDTRYESYLNEMVDLDAALRDTVARRYGVDRDNVIITNGGTEAIFLASAFISASSEVIAVPSPEYEPIFIVPESLDRRVRRVKLEKIGQAEKNSESLALSLPNNPTGKYGDIADLVRDAGRTYRYVYIDETFHDFTDDRGSSLYDGSKNLIVSNTMTKFYGLSSLRVGWIVSDKENIDAIRRIKDLTTINNARFSLFLARQAIEKWDRFRERTHSIVRKNADIARKELSDFGFYSDEYEGAPFMFVGDGRFDSEMMASKAISGYGVLVAPGSYFGLDGYLRVCLTALDAREDIAAFREFAEKELGK	not soluble
MSIMGKVAKLDSAMQRGLDNSFAFVFGGKLVPAEIEELLKQEVQDNIVRAYEGGVESPNVFRVRVSRKDAQNLAQRYPSLADDFADRLSRYTRNQGWSTEGPVVVTIAADSGLRTGQLHASSAFDPVPQEYSHFIGVEDDVAAAAPTNDESNYESESGMNSYDADPRTEYMTAQAPDAIYTEVPVPEPKATPTVSLLLQDGSSRTYLVEEGSNIIGRSNEAHFRLPDTGVSRQHAEITWNGRDAILTDLKSTNGTTVNDTPVENWLLEDGDVITVGHSHIEVRIVEPN	not soluble
MGSDKIHHHHHHMIRNKAFVVRLYPNAAQTELINRTLGSARFVYNHFLARRIAAYKESGKGLTYGQTSSELTLLKQAEETSWLSEVDKFALQNSLKNLETAYKNFFRTVKQSGKKVGFPRFRKKRTGESYRTQFTNNNIQIGEGRLKLPKLGWVKTKGQQDIQGKILNVTVRRIHEGHYEASVLCEVEIPYLPAAPKFAAGVDVGIKDFAIVTDGVRFKHEQNPKYYRSTLKRLRKAQQTLSRRKKGSARYGKAKTKLARIHKRIVNKRQDFLHKLTTSLVREYEIIGTEHLKPDNMRKNRRLALSISDAGWGEFIRQLEYKAAWYGRLVSKVSPYFPSSQLCHDCGFKNPEVKNLAVRTWTCPNCGETHDRDENAALNIRREALVAAGISDTLNAHGGYVRPASAGNGLRSENHATLVV	not soluble
MSETPAQCSIKQERISYTPPESPVPSYASSTPLHVPVPRALRMEEDSIRLPAHLRLQPIYWSRDDVAQWLKWAENEFSLRPIDSNTFEMNGKALLLLTKEDFRYRSPHSGDVLYELLQHILKQRKPRILFSPFFHPGNSIHTQPEVILHQNHEEDNCVQRTPRPSVDNVHHNPPTIELLHRSRSPITTNHRPSPDPEQRPLRSPLDNMIRRLSPAERAQGPRPHQENNHQESYPLSVSPMENNHCPASSESHPKPSSPRQESTRVIQLMPSPIMHPLILNPRHSVDFKQSRLSEDGLHREGKPINLSHREDLAYMNHIMVSVSPPEEHAMPIGRIADCRLLWDYVYQLLSDSRYENFIRWEDKESKIFRIVDPNGLARLWGNHKNRTNMTYEKMSRALRHYYKLNIIRKEPGQRLLFRFMKTPDEIMSGRTDRLEHLESQELDEQIYQEDEC	soluble
MGSDKIHHHHHHMSTEKIFIIGLPRTATTSVCLAMLEQGYKTAHNAYTQDSFSQAQVLADTPIFCDYQTLDKDFPNSRFIHLTRAPELWLPSIKQLLQRMLVNLQRTDGGFNPHIKRCYSETFSPLTEENINSDEFLLDCYTRHQQGITEHFQDRPQDLLTIDVGDEGSYLAMLSFLNIEKEKAREGGFKQINIGGKVRAWQHLNNPLKVESTNKGRIDKVLY	not soluble
MHSAVFSPDAPYCGAAGSNHLCEAVALCQSILARYRRTGTSFSSTELKAIQALRTEFPDTAQEPAANSAASPDQTTKDFLSILDDATDVPHNPQNDIVAFVEECCDNTKEPTVLFAAINERISAVTCSRNVRTYMVIANDNLLWDPVNGVAALIDDVTPLGKCAQARNMLTIANTLYIPLWFRSELVGCVEVPGACIPRDKATCAQLLLRCVTVAVRNSINISIRKREANKIEAMVGMATRLARDTLEESVLVQSIINTAKTLTESDRCSIFLVKADGSLEAHFEDGNVVVLPAGTGIAGHVAESGAVVNIPNAYEDDRFHRSVDKVTGYHTRTILCLPIAFEGTIVAVAQLINKLDMVTQSGQRLPRVFGRRDEELFETFSMFAAASLRNCRINETLLKEKKKSDAILDVVALLSNTDIRDVDSIVRHVLHGAKKLLNADRSSMFLLDKERNELYSKMADSANEIRFPCGQGIAGTVAESGVGENIMDAYADSRFNSAVDRQLGYRTQSILCEPITLNGEVLAVVQLVNKLGDDGSVTCFTPMDRETFQVFSLFAGISINNSHLLEFAVNAGREAMTLSLQRNSITAQRAPKSVKVIAVTPEEREAVMSIDFGGAYDFTSPGFNLFEVREKYSEPMDAAAGVVYNLLWNSGLPEKFGCREQTLLNFILQCRRRYRRVPYHNFYHVVDVCQTLHTYLYTGKASELLTELECYVLLVTALVHDLDHMGVNNSFYLKTDSPLGILSSASGNNSVLEVHHCSLAIEILSDPAADVFEGLSGQDVAYAYRALIDCVLATDMAKHADALSRFTELATSGFEKDNDTHRRLVMETLIKAGDVSNVTKPFETSRMWAMAVTEEFYRQGDMEKEKGVEVLPMFDRSKNNELARGQIGFIDFVAGKFFRDIVGNLFHGMQWCVDTVNSNRAKWQEILDGRRDSIRSSIV	not soluble
GPGSMRGIARPTVATVGLSQQVVAFDEWVWALNELGGRESFRKNWRYYALRIDTVHFLMFVLDVLNGQALDEARQYLKEVTSHYHEVPLLVVFNNFREGHRRFDISEFEALIHLDKLRRRHGADVLSCVCDISVVHSKNRQLPRTLSSTLRTLSSLLKARSKSENGGDGGAPPVPKATTSFSASVVGGAAGDAAAGDGVVHS	not soluble
MGSDKIHHHHHHMKMSINQIGRSNKVQIEKTEVEISTPDGKMPAFFYQPCERGQKPAVILLMEAFGLTSHIQDVATRIAKEGYVVLTPDLYYRELTNNKFGYEEVEQAMAMMYRLDFGKPIEEDIRAAIAYLKSQSNVFSEKIGVTGFCLGGGLSFLSACKFSDEIAAVASFYGMVLDDWIEAVTNISVPIYLFYGGIDSFIPPERVQQIETRFQELSKEYTLKVYPDADHGFFCHERSSYNRLAAEDSWNELTQFFHRHLQ	not soluble
RGSHHHHHHGSFTPSGTTGTTKLTVTEECQVRVGDLTVAKTRGQLTDAAPIGPVTVQALGCNARQVALKADTDNFEQGKFFLISDNNRDKLYVNIRPMDNSAWTTDNGVFYKNDVGSWGGTIGIYVDGQQTNTPPGNYTLTLTGGYWAK	soluble
MSLETSDAPHSSLVGNSVFVTHPDLKRLFQMAVSKSVREILIPAVEKAANMAVQSTVNIVLKDFATEVDEQKLKTAAINMVQYLAQNVAHSISVPLLKDTIRNTTQSLTPNLINMTNSPIAELNTAIDDNIAIAVSPIEKAAVERAIQEVNEKLVQAVAVRRYHLERRSDQPFVAQNINRFSLNLPDPLGLKPTGVTREQFSLYEQFPASMPSDSSRSPLETILAQEGHHHHHH	soluble
MSELILHHYPTSLFAEKARLMLGFKGVNWRSVTIPSIMPKPDLTALTGGYRKTPVLQIGADIYCDTALMARRLEQEKASPAFYPQGQEFAVAGLAAWADSVLFLHAVSLVFQPESMAVRFAKVPPDAAKAFIADRSMLFNGGTASRPPVEQVKHQWPTFMSRLESQLSHGGDFLFGAPSIADFSVAHTLWFLKQTPVTAPFVDDYPSVSVWLDRVLGFGHGSLSDLSSAAAIEIASNATPAPLPDETFIDPNGFKAGDKVAIAAVDYGVEAVEGELMFTGREELILRREDNRAGVVHVHFPRLGFRVEKR	soluble
AEVTQLSNGIVVATEHNPSAHTASVGVVFGSGAANENPYNNGVSNLWKNIFLSKENSAVAAKEGLALSSNISRDFQSYIVSSLPGSTDKSLDFLNQSFIQQKANLLSSSNFEATKKSVLKQVQDFEDNDHPNRVLEHLHSTAFQNTPLSLPTRGTLESLENLVVADLESFANNHFLNSNAVVVGTGNIKHEDLVNSIESKNLSLQTGTKPVLKKKAAFLGSEVRLRDDTLPKAWISLAVEGEPVNSPNYFVAKLAAQIFGSYNAFEPASRLQGIKLLDNIQEYQLCDNFNHFSLSYKDSGLWGFSTATRNVTMIDDLIHFTLKQWNRLTISVTDTEVERAKSLLKLQLGQLYESGNPVNDANLLGAEVLIKGSKLSLGEAFKKIDAITVKDVKAWAGKRLWDQDIAIAGTGQIEGLLDYMRIRSDMSMMRW	soluble
MNSTQSRRVGLYGTGRAAAQLVGAIEASPHTLTTAIVFFDEQAGQDIGTLTGGRATGITATTDLEGAIRSGDFDVLAYAGLKGEVLHRAMELCADSGVDLVHACFVHPRVKLDPEMYSRLQKRAEETGARIVGTGMLPGFWLDVLPALLSSALPAPVSIIGESRSDITAWGRGVLADEMGLGTLADGQPGPVGGVLHESAEMIADILGLTGYESKVYGGYVTAHAATEVAGIQISPGDRVGFDEAATVVHDGRERVRIAWKGLPKGSFEGYERSLTVTAIGGDGSECTLSITPALDPYPGTAARIVHAVGALGALPGGQHTPVQLGI	not soluble
